In patent publication US20210317227A1:

What was measured:
Assay in all cases: cell-based or functional assay
[1] = target: FcγRIIa on M2c macrophages (secondary ADCP assay) (UniProt P12318)
[2] = target: FcγRIIIa on Jurkat effector cells (UniProt P08637)
[3] = target: human FcγRIIa-H variant on Jurkat effector cells (human) (UniProt P12318)
[4] = target: FcγRIIIa on NK cells (secondary ADCC assays) (UniProt P08637)

EC50 (nM) Mean [1] [nM]	EC50 (nM) Mean [2] [nM]	EC50 (nM) Mean [3] [nM]	EC50 (nM) Mean [4] [nM]	Substance
0.82	7.1	7.1	0.033	fucosylated anti-CD20 IgG1 monoclonal antibody (obinutuzumab)
0.37				afucosylated anti-CD20 IgG1 monoclonal antibody (obinutuzumab)
			0.0054	afucosylated anti-PD-L1 IgG1 monoclonal antibody (avelumab)
	0.049			fucosylated anti-PD-L1 IgG1 monoclonal antibody (avelumab)
